The results in this text go back to patent US20220268777A1.

For assay [1], the target named is protein PADI2 (UniProt Q9Y2J8). The assay is described as follows: sandwich ELISA, capture 197, dilution row A.
Assay [2] deals with protein PADI4 (peptidylarginine deiminase 4) antigen (human) (UniProt Q9UM07). The assay is described as follows: sandwich ELISA, capture 197, dilution row A.
The target of assay [3] is protein PADI2 (UniProt Q9Y2J8). The assay is described as follows: sandwich ELISA, capture 197, dilution row B. For orientation: ELISA stands for enzyme-linked immunosorbent assay.
Assay [4] addresses protein PADI4 (peptidylarginine deiminase 4) antigen (human) (UniProt Q9UM07). The assay is described as follows: sandwich ELISA, capture 197, dilution row B.
Assay [5] deals with protein PADI2 (UniProt Q9Y2J8). The assay is described as follows: sandwich ELISA, capture 197, dilution row C.
Assay [6] addresses protein PADI4 (peptidylarginine deiminase 4) antigen (human) (UniProt Q9UM07). The assay is described as follows: sandwich ELISA, capture 197, dilution row C.
Assay [7] deals with protein PADI2 (UniProt Q9Y2J8). Description: sandwich ELISA, capture 197, dilution row D.
Assay [8] addresses protein PADI4 (peptidylarginine deiminase 4) antigen (human) (UniProt Q9UM07). The assay is described as follows: sandwich ELISA, capture 197, dilution row D.
The target in assay [9] is protein PADI2 (UniProt Q9Y2J8). Description: sandwich ELISA, capture 197, dilution row E.
Assay [10] concerns the target protein PADI4 (peptidylarginine deiminase 4) antigen (human) (UniProt Q9UM07). The assay is described as follows: sandwich ELISA, capture 197, dilution row E.
The target in assay [11] is protein PADI2 (UniProt Q9Y2J8). The assay is described as follows: sandwich ELISA, capture 197, dilution row F.
Assay [12] concerns the target protein PADI4 (peptidylarginine deiminase 4) antigen (human) (UniProt Q9UM07). Description: sandwich ELISA, capture 197, dilution row F.
For assay [13], the target named is protein PADI2 (UniProt Q9Y2J8). Description: sandwich ELISA, capture 197, dilution row G.
In assay [14] the target is protein PADI4 (peptidylarginine deiminase 4) antigen (human) (UniProt Q9UM07). Description: sandwich ELISA, capture 197, dilution row G.
The target of assay [15] is protein PADI2 (UniProt Q9Y2J8). Description: sandwich ELISA, capture 197, dilution row H (maybe blank).
Assay [16] concerns the target protein PADI4 (peptidylarginine deiminase 4) antigen (human) (UniProt Q9UM07). Described as above.

Sequence of UniProt Q9Y2J8 (Q9Y2J8 whole entry): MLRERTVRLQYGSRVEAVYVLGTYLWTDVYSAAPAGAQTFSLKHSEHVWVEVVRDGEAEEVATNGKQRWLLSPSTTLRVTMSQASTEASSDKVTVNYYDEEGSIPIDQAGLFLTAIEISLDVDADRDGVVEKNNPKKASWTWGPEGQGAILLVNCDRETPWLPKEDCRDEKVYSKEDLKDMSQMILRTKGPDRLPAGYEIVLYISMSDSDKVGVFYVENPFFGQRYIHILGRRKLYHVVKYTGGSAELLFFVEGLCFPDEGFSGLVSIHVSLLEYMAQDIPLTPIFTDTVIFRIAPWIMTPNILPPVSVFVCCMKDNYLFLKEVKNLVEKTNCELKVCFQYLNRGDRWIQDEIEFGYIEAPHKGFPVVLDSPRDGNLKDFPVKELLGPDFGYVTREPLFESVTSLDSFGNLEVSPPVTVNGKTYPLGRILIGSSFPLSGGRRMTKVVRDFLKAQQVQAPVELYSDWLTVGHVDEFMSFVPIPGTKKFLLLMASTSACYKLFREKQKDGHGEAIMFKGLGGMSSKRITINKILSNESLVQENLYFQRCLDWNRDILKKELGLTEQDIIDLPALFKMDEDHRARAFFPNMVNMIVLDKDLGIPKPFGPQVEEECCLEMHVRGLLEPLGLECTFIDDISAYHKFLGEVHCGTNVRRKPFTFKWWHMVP

B1: monoclonal antibody 135-B9 (antibody, human IgG1, kappa, V domains shown)
VH: EVKLQESGPGILQPSQTLSLTCSFSGFSLSTSGMCVGWIRQPSGKGLEWLAHIWWDDDKRYNPALKSRLTISKDTSSNQVFLKIASVDTADTATYYCARYYRFDEGFDYWGQGTTLTVSS
VL: DIVITQDELSNPVTLGTSASISCRSSKSLLHSDGITYLYWYLQKPGQSPQLLIYQMSNLASGVPDRFSSSGSGTDFTLRISRVEAEDVGVYYCAQNLELPLTFGAGTKLELKR
With B1, the OD was 0.06 OD with protein PADI2 [1]; 4.13 OD in assay [2]; 0.05 OD in the assay with protein PADI2 [3]; 3.95 OD in assay [4]; 0.05 OD in the assay with protein PADI2 [5]; 3.53 OD in [6]. The OD came out at 0.05 OD with protein PADI2 [7]; 2.47 OD in assay [8]; 0.05 OD with protein PADI2 [9]; 1.69 OD in assay [10]; 0.05 OD with protein PADI2 [11]; 0.92 OD in assay [12]. Further, the OD in the assay with protein PADI2 [13] is 0.05 OD; in [14] it was 0.46 OD; with protein PADI2 [15], 0.06 OD; in [16] it was 0.04 OD.
